Starred links: 1 amine or outer side, 2 acyl side, 3 side chain; linkers in the order of their positions; H or OH if unused. Non-standard residues stand in square brackets, D forms with d. No end group written: not given here. Lys(Me3) = C[N+](C)(C)CCCC[C@H](N)C(=O)O; Ethylenediamine = C(CN[*:2])N[*:1]; 5‑FAM = 5-carboxyfluorescein; GABA = NCCCC(=O)O
Tests used:
[1] = target: T1, E. coli expressed BAHD1(aa:588–780) (UniProt Q8TBE0 588-780); test: fluorescence polarisation; 5 nM 5-FAM labelled histone peptide, BAHD1(aa:588–780) 0–142 μM, 25 mM Tris/Cl pH 7.5, 50 mM NaCl, 15 min at 37°C; one-site binding model; details: both partners purified
T1 construct: BAHD1, BAH domain, aa 588-780; also called BAH domain of BAHD1; source: E. coli expressed
T1 sequence (looked up): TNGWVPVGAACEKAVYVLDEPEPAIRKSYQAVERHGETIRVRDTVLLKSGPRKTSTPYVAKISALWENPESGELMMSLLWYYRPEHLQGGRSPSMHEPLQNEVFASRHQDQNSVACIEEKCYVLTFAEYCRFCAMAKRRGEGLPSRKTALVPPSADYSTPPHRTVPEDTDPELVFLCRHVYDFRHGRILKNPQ

[2] = target: Full length HDAC1(aa:1–482) (UniProt Q13547 1-482); test: co-IP + SEC; FLAG-tagged bait transfected in HEK293F (with untagged partners where stated); lysate on anti-FLAG M2 resin, washed in 50 mM Tris/HCl pH 7.5, 50 mM potassium acetate, eluted by TEV protease, then Superdex S200 gel filtration; fractions on SDS-PAGE, bands identified by mass spectrometry; details: partners not purified
Sequence of Full length HDAC1(aa:1–482) (Q13547 whole entry): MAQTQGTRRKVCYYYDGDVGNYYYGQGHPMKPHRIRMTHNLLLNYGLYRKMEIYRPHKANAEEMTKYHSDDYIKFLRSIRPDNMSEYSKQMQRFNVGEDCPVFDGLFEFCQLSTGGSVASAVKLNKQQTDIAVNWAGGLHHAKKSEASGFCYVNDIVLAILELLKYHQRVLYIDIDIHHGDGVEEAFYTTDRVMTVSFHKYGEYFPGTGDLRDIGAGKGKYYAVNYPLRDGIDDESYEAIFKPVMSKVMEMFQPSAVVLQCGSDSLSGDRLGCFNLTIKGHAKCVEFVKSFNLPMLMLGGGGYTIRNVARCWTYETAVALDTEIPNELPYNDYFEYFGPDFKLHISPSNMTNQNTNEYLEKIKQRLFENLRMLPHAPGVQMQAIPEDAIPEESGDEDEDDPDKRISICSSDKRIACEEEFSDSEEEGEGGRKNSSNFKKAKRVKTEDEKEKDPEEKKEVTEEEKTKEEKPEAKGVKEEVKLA

B1: H3 16–35 K27me3 peptide (peptide)
peptide: PRKQLATKAAR[Lys(Me3)]SAPATGG-{Ethylenediamine-GABA-5‑FAM}
notes: Histone H3 tail peptide, named H3 16–35; also called H3 histone tail bearing a K27me3 modification; source: synthetic peptide, bought: Cambridge Research Biochemicals
[1]
  binding result: binds

B2: FLAG-tagged MIER1 ELM2-SANT (aa:171–350) (domain or fragment, UniProt Q8N108 171-350, looked up)
chain: DYIPSEDWKKEIMVGSMFQAEIPVGICRYKENEKVYENDDQLLWDPEYLPEDKVIIFLKDASRRTGDEKGVEAIPEGSHIKDNEQALYELVKCNFDTEEALRRLRFNVKAAREELSVWTEEECRNFEQGLKAYGKDFHLIQANKVRTRSVGECVAFYYMWKKSERYDFFAQQTRFGKKKY
notes: The tag holds the protein on the anti-FLAG resin; it is cut off by TEV protease for elution, before gel filtration and SEC-MALS; also called isolated ELM2-SANT domain; source: HEK293F, co-transfected with HDAC1; anti-FLAG resin, TEV, Superdex S200; not shown: 10xHis-3xFLAG, N-terminal, kept
[2]
  binding result: binds

— paper PMC10325919, “A potential histone-chaperone activity for the MIER1 histone deacetylase complex” (Nucleic Acids Research, 2023)
